Measured values reported in patent publication US20220332829A1 (NANJING SANHOME PHARMACEUTICAL, published 2022).
Substitutions are numbered along the chain they refer to.

Assays:
[1] = biological target: T1, B7-H3 on surface of tumor cell (786-0, MDA-MB-231, Raji-B7-H3 cells) (human, UniProt Q5ZPR3 29-534); experiment: cell-based or functional assay
T1 sequence (looked up): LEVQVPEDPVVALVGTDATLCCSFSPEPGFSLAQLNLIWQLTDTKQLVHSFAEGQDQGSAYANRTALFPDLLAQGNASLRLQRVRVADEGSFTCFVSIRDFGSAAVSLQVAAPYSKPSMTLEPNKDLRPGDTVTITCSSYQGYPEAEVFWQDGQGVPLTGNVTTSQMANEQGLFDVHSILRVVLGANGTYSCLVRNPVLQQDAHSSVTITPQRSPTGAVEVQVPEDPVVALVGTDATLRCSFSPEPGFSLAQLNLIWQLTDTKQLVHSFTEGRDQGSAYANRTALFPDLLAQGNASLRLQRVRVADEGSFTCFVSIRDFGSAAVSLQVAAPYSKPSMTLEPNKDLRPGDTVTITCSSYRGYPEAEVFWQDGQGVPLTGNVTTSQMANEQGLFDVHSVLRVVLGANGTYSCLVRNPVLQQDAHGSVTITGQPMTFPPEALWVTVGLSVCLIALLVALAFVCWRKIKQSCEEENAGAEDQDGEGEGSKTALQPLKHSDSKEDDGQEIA

[2] = biological target: T1, B7-H3 on surface of tumor cell (786-0, …); experiment: FACS on 786-0 cells
Experimental: (§1) The binding activity of antibodies to B7-H3 on the surface of tumor cells was analyzed by FACS. Mean fluorescence intensity (MFI) and EC₅₀ detected by FACS indicate the binding activity of the antibody to cells. After 786-0 and MDA-MB-231 cells were digested, they were resuspended in 2% FBS-PBS solution and counted. After raji-B7-H3 cells were collected, they were resuspended in 2% FBS-PBS and counted. The above cells were plated in a cell plate with 1×10⁵ cells per well. The anti-B7-H3 antibody of the present disclosure was used as the primary antibody and added to cell plates in gradient dilution starting from 20 μg/mL with a total of 8 concentrations: 20,000 ng/mL, […], 2,000 ng/mL, 400 ng/mL, 80 ng/mL, 16 ng/mL, 3.2 ng/mL, and 0.64 ng/mL respectively. The plates were incubated at 4° C. for 1 h with hBRCA84D as the positive control antibody. PE-Anti-Human IgG (Biolegend, Cat. No. 409303, 1.25 μl/well) was used as the secondary antibody, washed, and detected for the fluorescence intensity generated by the binding of the antibody to the cell surface by a flow cytometer.

[3] = biological target: T1, B7-H3 on surface of tumor cell (786-0, …); experiment: FACS on MDA-MB-231 cells
Experimental: as §1

[4] = biological target: T1, B7-H3 on surface of tumor cell (786-0, …); experiment: FACS on Raji-B7-H3 cells
Experimental: as §1

[5] = biological target: T2, human 4Ig-B7-H3-His protein (human, UniProt Q5ZPR3 29-466); experiment: Biacore X100 SPR, 4Ig-B7-H3-His coupled to CM5 chip, antibody injected
T2 construct: also called human B7-H3 protein
T2 sequence: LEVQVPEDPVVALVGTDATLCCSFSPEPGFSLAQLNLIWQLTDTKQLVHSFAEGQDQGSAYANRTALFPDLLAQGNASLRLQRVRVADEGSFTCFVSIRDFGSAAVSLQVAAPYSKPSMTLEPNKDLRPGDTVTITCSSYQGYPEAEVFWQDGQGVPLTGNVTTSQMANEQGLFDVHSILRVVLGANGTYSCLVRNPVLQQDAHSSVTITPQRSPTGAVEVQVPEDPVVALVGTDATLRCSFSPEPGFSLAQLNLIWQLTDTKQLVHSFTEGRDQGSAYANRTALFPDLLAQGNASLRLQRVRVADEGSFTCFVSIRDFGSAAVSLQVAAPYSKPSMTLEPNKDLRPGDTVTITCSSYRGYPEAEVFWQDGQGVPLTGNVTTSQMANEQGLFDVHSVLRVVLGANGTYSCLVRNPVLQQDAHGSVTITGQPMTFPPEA
Excerpt: The humanized anti-B7-H3 antibodies prepared in Example 4 were subjected to affinity assay by Biacore. The antigen 4Ig-B7-H3-His was first coupled to the surface of a CM5 chip (GE, Cat. No. BR100012), and the active groups of the uncoupled protein were blocked with ethanolamine. After the baseline was stable, the hu39-01, hu65-13, and hBRCA84D antibodies were respectively diluted in equal proportions. The diluted antibodies of each concentration were placed on the sample injection tray of the instrument in sequence, and the program was set to inject samples respectively.

B1: SHS007-17-CHI (antibody, human IgG1, V domains shown)
VH: QVHLQQSGPELVKPGASVKMSCKASGFTFTDYVVSWVKQRTGQGLEWIGEIYPGGGFIHYNEKFKGKATLTADKSSNTAYMQLTSLTSEDSAVYFCARFPKYYFDYWGQGTTLTVSS
VL: DVVMTQTPLSLPVSLGDQASISCRSSQSIVHSNRYTYLEWYLQKPGQSLKLLIYGVSNRFSGVPDRFSGSGSGTDFTLKISRVEAEDMGVYYCFQSTLFPWTFGGGTKLEIK
- EC50 Ratio (ADCC, LDH method; EC50 of hBRCA84D divided by EC50 of the antibody; 786-0 target cells, human PBMC effectors) [1]: 20.1

B2: SHS007-39-CHI (antibody, human IgG1, V domains shown)
VH: EVQLQQSGPELVKPGASVKISCKTSGYTFTEYTIHWMKQSHGKSLEWIGGLNPNTGGTTYNQKFKDKATLTVDKSSSTAYMALRSLTSEDSAVYYCARKGGWFFLDYWGQGTTLIVSS
VL: QIVLTQSPAIMSASPREKVTMTCSASSSVSYMHWYQQKSGTSPKRWIYDTSKLASGVPARFRGSGSGTSYSLTISNMEAEDAATYYCQQWSSNPPTFGGGTKVEIK
- EC50 Ratio (ADCC, LDH method; EC50 of hBRCA84D divided by EC50 of the antibody; 786-0 target cells, human PBMC effectors) [1]: 212

B3: SHS007-51-CHI (antibody, V domains shown)
VH: EVQLVESGGDSVKPGGSLKLSCAASGFTFSSFGMSWVRQTPDKRLEWVATINSGDNYSYSPDSVKGRFTISRDNAKNILYLQMSSLKSEDTAMYYCARPHIFYYGSPAWFAYWGQGTLVTVSA
VL: DVVMTQTPLSLPVSLGDQASVSCRSRQSLVHSNGNTYLHWYLQRPGQSPKLLIYKVSNRFSGVPDRFSGSGSGTDFTLKISRVEAEDLGVYFCSQSTHVPLTFGAGTKLELK
- EC50 Ratio (ADCC, LDH method; EC50 of hBRCA84D divided by EC50 of the antibody; 786-0 target cells, human PBMC effectors) [1]: 6.6

B4: SHS007-59-CHI (antibody, V domains shown)
VH: EVQLQQSGPELVKPGTSVKIPCKASGYTFTDYHMDWVKQSHGKSLEWIGDINPNNGGTIYNQKFKGKATLTVDKSSSTAYMELRGLTSEDTAVYYCARGGLHDYWGPGTTLTVSS
VL: DIVMTQSQKFMSTKVGDRVSITCKASQSVGTAVAWYQQKPGQSPKLLIYSTSNRYTGVPDRFTNNASGTDFTLTISNVQSADLADYFCQQYGNYPLTFGGGTKLEIK
- EC50 Ratio (ADCC, LDH method; EC50 of hBRCA84D divided by EC50 of the antibody; 786-0 target cells, human PBMC effectors) [1]: 4.4

B5: SHS007-65-CHI (antibody, human IgG1, V domains shown)
VH: EVQLVESGGGLVKPGGSLKLSCAASGFTFSDYGIHWVRQAPEKGLEWVAYISSGSNTIYYADTVKGRFTISRDNAKNTLFLQMTSLRSEDTAIYYCATMVTRWFYYAMDYWGQGTSVTVSS
VL: B2 VL with R16G, H33Y, R62S, S75N, G99A, V103L, I105L
- EC50 Ratio (ADCC, LDH method; EC50 of hBRCA84D divided by EC50 of the antibody; 786-0 target cells, human PBMC effectors) [1]: 18.6

B6: SHS007-72-CHI (antibody, V domains shown)
VH: QVQLVQSGPELKKPGETVKISCKASGYTFTNYGMYWVKQAPGEGLKWMGWINTHTGEPTYGDDFKGRFAFSLETPATIAFLEISILKNEDTATYFCARKSFGDFIYAMDFWGQGTSVTVSS
VL: DIQMTQTTSSLSASLGDRVTISCRASQDIGKYLNWYQQKPDGTVKLLIYYTSRLHLGVPSRFSGSGSGTDFSLTISNLEQEDTATYFCQQGTTLPPTFGGGTKVEIK
- EC50 Ratio (ADCC, LDH method; EC50 of hBRCA84D divided by EC50 of the antibody; 786-0 target cells, human PBMC effectors) [1]: 7.1

B7: SHS007-95-CHI (antibody, V domains shown)
VH: EVKLVESGGELVKPGGSLKLSCAASGFTLSSYVMSWVRQTPEKRLEWVAAISRYGDPTNFPDNMRDRFTISRDNAKNTLSLQMSSLRSEDTALYFCARHHFDGTSWYFDVWGPGTTVTVSS
VL: EIVLTQSPALMAASPGERVTITCSVSSSISSIDLHWYQQKSGTFPKLWIYGTSNLASGVPVRFSGSGSGTSYSLTISTMEAEDAATYYCQQWSSFPLTFGSGTKLEIK
- EC50 Ratio (ADCC, LDH method; EC50 of hBRCA84D divided by EC50 of the antibody; 786-0 target cells, human PBMC effectors) [1]: 11.4

B8: hu65-13 (antibody, human IgG1, V domains shown)
VH: B5 VH with K13Q, K19R, E42G, A49S, T78S, F80Y, T84N, S88A, I93V, S116T
VL: EIVLTQSPATLSLSPGERATLSCSASSSVSYMYWYQQKPGQAPRRLIYDTSKLASGVPARFSGSGSGTDYTLTISSLEPEDFAVYYCQQWSSNPPTFGQGTKLEIK
notes: expressed in HEK293E; also called humanized anti-B7-H3 antibody hu65-13
- EC50 [2]: 0.266 µg/mL
- Mean fluorescence intensity (MFI) [2]: 566000
- EC50 [3]: 0.14 µg/mL
- Mean fluorescence intensity (MFI) [3]: 151000
- EC50 [4]: 0.266 µg/mL
- Mean fluorescence intensity (MFI) [4]: 566000
- Kd [5]: 0.198 nM
- koff [5]: 1.89e-05 s⁻¹
- kon [5]: 95400 M⁻¹ s⁻¹
